{"source": "paper PMC4505599", "target": "Mos1 transposase (T216A mutant) (Drosophila mauritiana)", "assay": "crystal structure; Mos1 IRL paired-end complex: full-length transposase mixed with duplex IRL DNA at 1:1.5 protein:DNA in 25 mM Tris pH 7.5, 250 mM KCl, 1 mM DTT; crystals grown at 17 °C; 3.1 Å"}
{"substance": "Mos1 transposase (T216A mutant) (enzyme)", "values": [{"measurement": "stoichiometry N", "result": 2}]}
